Results reported in patent publication US20260184766A1.

Experiments:
[1] = molecular target: T1, SARS CoV-2 spike trimer protein from the parental Wuhan-Hu-1 isolate (recombinant stabilized extracellular domain) (SARS-CoV-2 (Wuhan-Hu-1)); test: ELISA, spike coated, chimeric IgG1; details: remark: other sources report otherwise
[2] = molecular target: T1, SARS CoV-2 spike trimer protein from …; test: ELISA on coated recombinant stabilized spike protein, panel WT, OD 450; details: remark: other sources report otherwise
[3] = molecular target: SARS-CoV-2 (antigen of the ELISA of FIG. 5E); test: ELISA on SARS-CoV-2 antigen (spike or RBD not stated), OD 450
[4] = molecular target: T1, SARS CoV-2 spike trimer protein from …; test: ELISA on coated spike protein, anti-human Fc-HRP, OD450; details: remark: other sources report otherwise

B1: SKM chimeric bovine-human IgG1 (ultralong CDR3) (antibody)
VH: QVQLRESGPSLVKPSQTLSLTCTASGFSLSDKAVGWVRQAPGKALEWLGSIDTGGNTGYNPGLKSRLSITKDNSKSQVSLSVSSVTTEDSATYYCTTVHQETLRSCPDGYIDNSGCTADWGCAALDCWRRRFGYHSTDPSHYTGATYIYTYSLHIDAWGQGLLVTVSS
VL: QAVLNQPSSVSGSLGQRVSITCSGSSSNVGNGYVSWYQLIPGSAPRTLIYGDTSRASGVPDRFSGSRSGNTATLTISSLQAEDEADYFCASAEDSSSNAVFGSGTTLTVL
Q: What does the source list for B1?
A: EC50 [1]: 190 pM; EC50 (read off the curve) [2]: 200 pM

B2: SKD chimeric bovine-human IgG1 (ultralong CDR3) (antibody)
VH: QVQLRESGPSLVKPSQTLSLTCTASGFSLSDKAVGWVRQAPGKALEWLGSIDTGGNTGYNPGLKSRLSITKDNSKSQVSLSVSSVTTEDSATYYCTTVHQRTSEKRSCPGGSSRRYPSGASCDVSGGACACYVSNCRGVLCPTLNEIVAYTYEWHVDAWGQGLLVTVSS
VL: B1 VL
Q: Which EC50 [1] does the source give for B2 here?
A: Its EC50 is 160 pM.

B3: R2D9 chimeric bovine-human IgG1 (ultralong CDR3) (antibody)
VH: QVQLRESGPSLVKPSQTLSLTCTASGFSLSDKAIGWVRQAPGKALEWLGSIDTRGNTGYNPGLKSRLSITKDSSKSQVSLSVNSVTTEDSATYLCAIVQQITHKTCPNGYNWFDRCCSWDGTCGDGCCSNRAWPSGNGRADSSIGETYGYEFHVAAWGQGLLVTVSS
VL: B1 VL
Q: For B3, which EC50 (read off the curve) [3] is on record?
A: The EC50 (read off the curve) was 30 pM.

B4: R4C1 chimeric bovine-human IgG1 (ultralong CDR3) (antibody)
VH: QVQLRESGPSLVKPSQTLSLTCTASGFSLSDKAVGWVRQAPGKPLEWLGSIDTAENTGYNPGLKSRLSITKDNSKSQVSLSVSSVTTEDSATYYCATVHQKTRKEKNCPDGYIYSSNTASGYDCGVWICRRVGSAFCSRTGDYTSPSEFDIYEFYVEGWGQGLLVTVSS
VL: B1 VL
Q: What does the source list for B4?
A: EC50 [1]: 200 pM; EC50 (read off the curve) [2]: 300 pM; EC50 (read off the curve) [4]: 30 pM
